# Substitutions are numbered along the chain they refer to.
# B1: Dual specificity tyrosine-phosphorylation-regulated kinase mbk-2 (Caenorhabditis elegans), Q9XTF3-2 (parent)
# chain: MTLFEPSTSGNRMGYRGSSNSSSGVGSGGSGSLMTQSIGGPNKHLSASHSTLNTASTHDMMHSKIPKSPSNESLSRSHTSSSGGSQGGHNSNSGSNSGFRPEDAVQTFGAKLVPFEKNEIYNYTRVFFVGSHAKKQAGVIGGANNGGYDDENGSYQLVVHDHIAYRYEVLKVIGKGSFGQVIKAFDHKYQQYVALKLVRNEKRFHRQADEEIRILDHLRRQDSDGTHNIIHMLDYFNFRNHKCITFELLSINLYELIKRNKFQGFSLMLVRKFAYSMLLCLDLLQKNRLIHCDLKPENVLLKQQGRSGIKVIDFGSSCFDDQRIYTYIQSRFYRAPEVILGTKYGMPIDMWSLGCILAELLTGYPLLPGEDENDQLALIIELLGMPPPKSLETAKRARTFITSKGYPRYCTATSMPDGSVVLAGARSKRGKMRGPPASRSWSTALKNMGDELFVDFLKRCLDWDPETRMTPAQALKHKWLRRRLPNPPRDGLESMGGLADHEVCFIIF
# partner: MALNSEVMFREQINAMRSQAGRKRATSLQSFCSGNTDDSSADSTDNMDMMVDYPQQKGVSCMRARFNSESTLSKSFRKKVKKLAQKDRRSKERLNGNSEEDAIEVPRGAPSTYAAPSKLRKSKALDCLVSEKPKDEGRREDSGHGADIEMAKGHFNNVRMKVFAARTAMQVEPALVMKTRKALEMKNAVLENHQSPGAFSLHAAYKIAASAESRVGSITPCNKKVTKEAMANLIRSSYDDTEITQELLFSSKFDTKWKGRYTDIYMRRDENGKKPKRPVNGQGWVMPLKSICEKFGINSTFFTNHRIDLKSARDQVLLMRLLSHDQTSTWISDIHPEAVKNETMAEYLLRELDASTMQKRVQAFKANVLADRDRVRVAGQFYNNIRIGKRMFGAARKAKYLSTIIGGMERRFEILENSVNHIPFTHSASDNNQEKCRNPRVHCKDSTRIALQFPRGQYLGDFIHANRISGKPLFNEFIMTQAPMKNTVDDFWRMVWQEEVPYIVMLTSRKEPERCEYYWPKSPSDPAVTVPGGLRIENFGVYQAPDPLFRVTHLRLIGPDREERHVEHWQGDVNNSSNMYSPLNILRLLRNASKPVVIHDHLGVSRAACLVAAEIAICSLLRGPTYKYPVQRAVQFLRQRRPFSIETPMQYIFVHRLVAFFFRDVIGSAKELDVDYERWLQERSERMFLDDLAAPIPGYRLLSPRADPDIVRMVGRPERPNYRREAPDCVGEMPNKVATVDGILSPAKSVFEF
# B2: Dual specificity tyrosine-phosphorylation-regulated kinase mbk-2 (Caenorhabditis elegans), Q9XTF3-2 (parent)
# chain: B1 chain
# partner: B1 partner with R139S, N157D, T255S, M344L, K444R, T739A
# Variants of: B1
# Settings: with egg4_caeel egg-4, O01767
row,effect of a mutation on the interaction,Variant
1,decreasing interaction,Y325F;Y327F
2,decreasing interaction,K196R

# Variants of: B2
# Settings: with egg5_caeel egg-5, O61789
row,effect of a mutation on the interaction,Variant
1,decreasing interaction,Y325F;Y327F
2,decreasing interaction,K196R

# From IntAct's records for PubMed 19879842
